Laboratory results taken from article PMC10269531, “NH125 Sensitizes Staphylococcus aureus to Cell Wall-Targeting Antibiotics through the Inhibition of the VraS Sensor Histidine Kinase” (Microbiology Spectrum, 2023).

How the values were obtained:
[1] = system: Nc1ncnc2c1ncn2[C@@H]1O[C@H](COP(=O)(O)OP(=O)(O)OP(=O)(O)O)[C@@H](O)[C@H]1O; test: PK/LDH-coupled ATPase assay, Michaelis-Menten kinetics (KM of ATP); type: biochemical, Staphylococcus aureus; settings: Mg2+ catalytic domain (CAT) that binds ATP
[2] = biological target: T1, VraS sensor histidine kinase (GST-VraS) (Staphylococcus aureus, UniProt Q99SZ7); test: PK/LDH-coupled ATPase (autophosphorylation) assay, NADH absorbance at […] nm; Michaelis-Menten inhibition kinetics; type: biochemical
T1 construct: GST-tagged intracellular domain, amino acids 85 to 347 (DHp and CAT)
T1 sequence (Q99SZ7 85-347): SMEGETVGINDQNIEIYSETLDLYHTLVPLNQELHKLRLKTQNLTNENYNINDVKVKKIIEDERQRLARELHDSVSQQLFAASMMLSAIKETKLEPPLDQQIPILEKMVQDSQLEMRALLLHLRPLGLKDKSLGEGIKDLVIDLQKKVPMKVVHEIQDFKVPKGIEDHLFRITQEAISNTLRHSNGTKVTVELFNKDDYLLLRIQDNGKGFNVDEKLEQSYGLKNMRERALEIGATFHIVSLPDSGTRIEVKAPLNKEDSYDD

Row | Compound | Km [1] | Vmax [1] | kcat [1] | kcat/Km [1] | IC50 [2]
1 | VraS sensor histidine kinase (GST-VraS) (Staphylococcus aureus subsp. aureus N315) | 6.7 ± 1.6 µM | 0.000108 µmol/min | 0.0169 ± 0.0056 s⁻¹ | 2600 ± 600 M⁻¹ s⁻¹ | 
2 | CCCCCCCCCCCCCCCC[n+]1ccn(Cc2ccccc2)c1C [NH125] |  |  |  |  | 41 ± 5 µM
